Literature values in patent publication US20240408194A1, “DNA ORIGAMI SUBUNIT VACCINE FOR PREVENTION OF SARS-CoV-2 VARIANT INFECTION” (priority 2021, published 2024).

Target: T1, fibrinogen (Homo sapiens, UniProt P02675+P02679)
T1 sequence (P02675 31-491): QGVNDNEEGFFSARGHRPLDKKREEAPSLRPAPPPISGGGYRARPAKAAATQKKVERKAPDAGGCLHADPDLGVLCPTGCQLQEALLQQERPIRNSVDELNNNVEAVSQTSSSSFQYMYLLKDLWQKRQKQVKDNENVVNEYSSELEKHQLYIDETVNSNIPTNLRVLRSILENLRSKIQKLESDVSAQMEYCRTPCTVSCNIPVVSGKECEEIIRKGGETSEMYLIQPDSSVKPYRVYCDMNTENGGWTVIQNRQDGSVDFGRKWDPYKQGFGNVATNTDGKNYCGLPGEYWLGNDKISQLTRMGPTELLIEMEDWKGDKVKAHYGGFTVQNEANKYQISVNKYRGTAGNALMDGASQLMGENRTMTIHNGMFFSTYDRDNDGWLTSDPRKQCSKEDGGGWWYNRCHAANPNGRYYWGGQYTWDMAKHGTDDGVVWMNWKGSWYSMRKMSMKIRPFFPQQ
T1 sequence (P02679 27-453): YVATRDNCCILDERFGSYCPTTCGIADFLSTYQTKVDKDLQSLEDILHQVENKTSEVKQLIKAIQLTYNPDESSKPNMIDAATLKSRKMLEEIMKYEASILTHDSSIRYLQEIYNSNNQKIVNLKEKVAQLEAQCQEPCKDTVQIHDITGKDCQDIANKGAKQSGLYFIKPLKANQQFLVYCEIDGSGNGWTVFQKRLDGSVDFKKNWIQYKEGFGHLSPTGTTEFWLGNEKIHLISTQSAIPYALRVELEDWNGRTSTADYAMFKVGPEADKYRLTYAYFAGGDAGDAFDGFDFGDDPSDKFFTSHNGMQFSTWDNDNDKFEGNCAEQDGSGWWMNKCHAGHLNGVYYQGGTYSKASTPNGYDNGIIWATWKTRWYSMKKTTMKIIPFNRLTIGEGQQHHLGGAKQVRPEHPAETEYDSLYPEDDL
T1 sequence (P02671 20-629 partner limits assumed): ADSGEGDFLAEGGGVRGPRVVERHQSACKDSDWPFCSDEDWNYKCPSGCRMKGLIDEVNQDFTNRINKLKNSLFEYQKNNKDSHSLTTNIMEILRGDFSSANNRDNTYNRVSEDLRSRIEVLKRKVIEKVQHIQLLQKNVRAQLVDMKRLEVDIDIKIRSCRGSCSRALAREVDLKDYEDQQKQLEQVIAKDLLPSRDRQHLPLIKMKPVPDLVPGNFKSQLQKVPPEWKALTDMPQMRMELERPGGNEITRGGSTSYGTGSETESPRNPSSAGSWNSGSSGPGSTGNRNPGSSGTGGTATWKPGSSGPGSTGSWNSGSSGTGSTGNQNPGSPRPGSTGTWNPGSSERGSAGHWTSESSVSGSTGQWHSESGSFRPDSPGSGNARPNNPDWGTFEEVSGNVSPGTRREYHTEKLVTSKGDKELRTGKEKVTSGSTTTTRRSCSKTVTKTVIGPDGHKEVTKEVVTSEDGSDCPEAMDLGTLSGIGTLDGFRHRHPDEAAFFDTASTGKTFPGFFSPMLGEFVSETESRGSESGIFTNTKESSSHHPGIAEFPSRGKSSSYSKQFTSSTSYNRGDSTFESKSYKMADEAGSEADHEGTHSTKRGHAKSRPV
Settings: hydrophobic pocket domains of fibrinogen; cited from earlier work

GPRPXX: short fibrin knob peptide (SEQ ID NO: 3) that recognizes hydrophobic pocket domains of fibrinogen
Kd: 5 to 10 µM
